{
  "source": "paper PMC3361975",
  "data": [
    {"tested_on": "NC(=O)c1ccc[n+]([C@@H]2O[C@H](COP(=O)(O)OP(=O)(O)OC[C@H]3O[C@@H](n4cnc5c(N)ncnc54)[C@H](O)[C@@H]3O)[C@@H](O)[C@H]2O)c1", "experiment": "purified protein", "conditions": "phosphite and NAD+ varied, 100 mM MOPS pH 7.25, 25 °C", "values": [
      {"substance": "17X-PTDH (Stutzerimonas stutzeri; A319E/A325V/C336D/D13E/E130K/E175A/E332N/I150F/I313L/L276Q/M26I/Q132R/Q137R/Q215L/R275Q/R301A/V315A/V71I)", "Km": "0.216 (0.015) mM"},
      {"substance": "17X-PTDH (Stutzerimonas stutzeri; A319E/A325V/C336D/D13E/E130K/E175A/E332N/I150F/I313L/L276Q/M26I/Q132R/Q137R/Q215L/R275Q/R301K/V315A/V71I)", "Km": "0.074 (0.007) mM"},
      {"substance": "17X-PTDH (Stutzerimonas stutzeri; A319E/A325V/C336D/D13E/E130K/E175A/E332N/I150F/I313L/L276Q/M26I/Q132R/Q137R/Q215L/R275Q/V315A/V71I)", "Km": "0.022 (0.006) mM"}
    ]}
  ]
}
